Three molecules from publication doi:10.1101/2023.03.23.533938 (bioRxiv, 2023) can be followed below.

Residue numbers refer to the chain shown, from its start.

The chains are these.
B1: Swi5 (natural protein)
chain: MEKSQLESRVHLLEQQKEQLESSLQDALAKLKNRDAKQTVQKHIDLLHTYNEIRDIALGMIGKVAEHEKCTSVELFDRFGVNGSE
B2: Swi5-Sfr1 phosphomimetic mutant complex (complex)
chain 1: MSQTINSELNENATSQCKEDLKVDLSESDLRDSQGQLGIENPPKCNNSGNHSDNLGFIEQSETVHPENEKALDPDLRDTKIHTSLPITTPFSKKRAREAKNILLKPFKDPLRQTADPQVADTNLKPSLAVTNLNSDETNTSSEPVTSPLRTTPNSIKRQKRLFKDPISNCLNPKSDPEITQLLSRRLKLEKEVRNLQEQLITAETARKVEAKNEDKDLQTLIQKWKNAAQQAAEVLFKPMAERIRLAGGVTQSFRIEEGENKGQIQEVRTEFTMSMFLNQFGVPVHLMSFDEENGDWKS
chain 2: B1 chain
B3: Rad51 (natural protein)
chain: MADTEVEMQVSAADTNNNENGQAQSNYEYDVNVQDEEDEAAAGPMPLQMLEGNGITASDIKKIHEAGYYTVESIAYTPKRQLLLIKGISEAKADKLLGEASKLVPMGFTTATEYHIRRSELITITTGSKQLDTLLQGGVETGSITELFGEFRTGKSQICHTLAVTCQLPIDMGGGEGKCLYIDTEGTFRPVRLLAVADRYGLNGEEVLDNVAYARAYNADHQLELLQQAANMMSESRFSLLVVDSCTALYRTDFSGRGELSARQMHLARFMRTLQRLADEFGIAVVITNQVVAQVDGISFNPDPKKPIGGNILAHSSTTRLSLRKGRGEQRICKIYDSPCLPESEAIFAINSDGVGDPKEIIAPV

One assay addresses T1, Sfr1, wild type (S. pombe, UniProt Q9USV1 1-299).
T1 sequence: B2 chain 1 with D24S, D73T, D109S, D116S, D165S
Description: SEC. In general terms: SEC sorts molecules by how far they enter the pores of the column.

In the assay “Rad51” the target is B3. In words: pull-down.
In assay [1] the target is T2, Swi5-Sfr1 complex, wild type (S. pombe, UniProt Q9USV1;Q9UUB7).
T2 sequence 1: B2 chain 1 with D24S, D73T, D109S, D116S, D165S
T2 sequence 2: B1 chain
Description: pull-down.

On to B1, for which the binding result with Sfr1, wild type was “binds”.

Turning to B2, in the assay with Rad51, the “fold reduction in co-precipitation with Rad51 against wild type” value is roughly 5 fold.

In the case of B3, the binding result in assay [1] is given as “binds”.
